A word on the Kd: it is the equilibrium constant for the complex coming apart. A high value points to lower affinity.

Results on two molecules are retold here after US5969107.

Several values for one entry are separate records, joined by “and”; a condition that tells them apart may be missing. Identical values can stand only once.

The target of test [1] is murine monoclonal anti-EGFR antibody mAb 425 (ATCC HB 9629). The test can be described thus: inhibition CellELISA on fixed A431 cells; reference 5A6 and 3B6.
Test [2] shares this target. The test can be described thus: competition ELISA in solution by the method of Friguet, Scatchard plot. (An ELISA detects its analyte on a solid surface through an enzyme-linked reagent.)
The target of test [3] is Anti-EGFR Ab3 sera from Balb/c and B6D2F1 mice. The test can be described thus: inhibition ELISA: anti-EGFR Ab3 sera preincubated with the Anti-Id, then on coated sEGFR.

B1: 15H8 monoclonal anti-idiotypic antibody (Ab2) (antibody, V domains shown)
VH: EVQLVESGGGLVKPGGSLKLSCAASGFTFSDYYMYWFRQHPGKRLEWVATISDAGTYTYYPDSLKGRFTISRDNAKNNLYLQMSSLKSEDTAMYFCARDGAARTSSQVYYYGMDYWGQGTSVTVSS
VL: DIVMTQSQKFMSTSVGDRVSITCKASQNVRTAVAWYQQKPGQSPKALIYLASNRHTGVPDRFTGSGSGTDFTLTISNVQSEDLADYFCLQHWNYPLTFGSGTKLEIKR
Molecule B1 showed a times more effective in inhibition than 5A6 and 3B6 in test [1] of 10 times. The molecule also returned a Kd in test [2] of 300 pM. In test [3], the percentage of inhibition was 15% and 35%.

B2: 5A6 monoclonal anti-idiotypic antibody (Ab2) (antibody, V domains shown)
VH: DVKLVESGGGLVKLGGSLKLSCAASGFTFSNYYMSWVRQTPEKRLEFVAAINSNGGSTYYPDTVKGRFTISRDNAKNTLYLQMSSLKSEDTALYYCARHRGRDSSGYVGYAIDYWGQGTSVTVSS
VL: DILLTQSPAILSVSPGERVSFSCRASQSIGTSIHWYQQRTNGSPRLLISILLSLSLGVPSRFSGSGSGTDFTLSINSVESEDIADYYCQQSNSWPYTFGGGTKLEIKR
B2 registered a Kd in test [2] of 1000 pM. The molecule further displayed a percentage of inhibition in test [3] of 100%.
